The target of assay [1] is T1, mouse CLPTM1L protein (mouse, UniProt Q8BXA5 1-539).
T1 construct: whole, on cells; also called the mouse protein
T1 sequence (looked up): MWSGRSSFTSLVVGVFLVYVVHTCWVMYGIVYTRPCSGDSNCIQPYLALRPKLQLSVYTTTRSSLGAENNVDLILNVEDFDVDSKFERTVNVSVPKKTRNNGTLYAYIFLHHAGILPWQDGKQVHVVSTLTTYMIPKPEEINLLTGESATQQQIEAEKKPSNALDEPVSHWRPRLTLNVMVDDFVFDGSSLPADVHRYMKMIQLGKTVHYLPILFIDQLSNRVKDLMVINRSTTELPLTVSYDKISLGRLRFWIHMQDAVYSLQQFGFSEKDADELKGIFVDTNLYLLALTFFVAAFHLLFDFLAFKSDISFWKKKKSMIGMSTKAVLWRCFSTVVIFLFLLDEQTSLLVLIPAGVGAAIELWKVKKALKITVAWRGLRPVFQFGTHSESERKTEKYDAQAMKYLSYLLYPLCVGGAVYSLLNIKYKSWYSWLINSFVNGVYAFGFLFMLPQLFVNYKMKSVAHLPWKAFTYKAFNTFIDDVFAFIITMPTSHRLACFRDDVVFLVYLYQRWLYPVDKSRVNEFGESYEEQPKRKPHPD
Kind of assay: flow cytometry on live ID8-luc mouse ovarian tumor cells (102-5 primary by the legend of FIG. 31A). The procedure:
(E) Final relative mean volumes of SL3 and SL3cis xenograft tumors 24 days post-inoculation. […] (F) Mean volumes of SL3 and SL3cis xenograft tumors relative to group mean volume after sorting from days 0 to 24 post-inoculation. *p<0.05, **p<0.005, ***p<0.0005. Error bars represent standard error of the mean.
Flow cytometry was conducted per AbCam protocol for indirect flow cytometry. Tumor cells were harvested by trypsinization and suspended in cold PBS, 10% FBS, 0.05% NaN₃. 100 μL of cell suspension was added to 12×75 mm polystyrene tubes. 10 μg/mL of primary antibody diluted in PBS 3% BSA was added and tubes were incubated at 4° C. in the dark for 45 minutes. After washing 3 times in cold PBS, cells were resuspended in rabbit anti-Human Fc (H&L)-Alexafluor 488 (Abcam) in PBS 3% BSA and incubated at 4 C in the dark for 30 minutes. After washing 3 times in cold PBS, cells were suspended in 500 μL cold PBS, 3% BSA, 0.05% NaN₃ and analyzed on an Accuri C6 flow cytometer. Cells were gated for live cells based on scatter and fluorescence was plotted on a histogram using Flowing Software 2 (Turku Bioimaging).
A general note: A flow cytometer gives signals particle by particle.

Assay [2] addresses T2, purified CRR9 ectodomain (human, UniProt Q5R7B1 32-284 (Pongo abelii entry), limits assumed).
T2 construct: also called CLPTM1L ectodomain
T2 sequence: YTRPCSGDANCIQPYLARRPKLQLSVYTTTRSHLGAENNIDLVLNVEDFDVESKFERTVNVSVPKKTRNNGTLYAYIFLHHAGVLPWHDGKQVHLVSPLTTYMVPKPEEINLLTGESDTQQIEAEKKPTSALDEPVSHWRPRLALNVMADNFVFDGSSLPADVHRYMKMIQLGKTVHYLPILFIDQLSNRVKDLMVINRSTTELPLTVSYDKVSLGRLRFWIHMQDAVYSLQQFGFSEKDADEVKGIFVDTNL
As to the kind of experiment: ELISA with purified CRR9 ectodomain. (In general: In an ELISA, binding on a coated surface is turned into a signal by an enzyme label.)

The target in assay [3] is T3, human CLPTM1L/CRR9 protein (human, UniProt Q96KA5 1-538).
T3 construct: also called Cisplatin Resistance Related Protein-9; Cleft-Lip and Palate Transmembrane Protein-Like Protein 1
T3 sequence: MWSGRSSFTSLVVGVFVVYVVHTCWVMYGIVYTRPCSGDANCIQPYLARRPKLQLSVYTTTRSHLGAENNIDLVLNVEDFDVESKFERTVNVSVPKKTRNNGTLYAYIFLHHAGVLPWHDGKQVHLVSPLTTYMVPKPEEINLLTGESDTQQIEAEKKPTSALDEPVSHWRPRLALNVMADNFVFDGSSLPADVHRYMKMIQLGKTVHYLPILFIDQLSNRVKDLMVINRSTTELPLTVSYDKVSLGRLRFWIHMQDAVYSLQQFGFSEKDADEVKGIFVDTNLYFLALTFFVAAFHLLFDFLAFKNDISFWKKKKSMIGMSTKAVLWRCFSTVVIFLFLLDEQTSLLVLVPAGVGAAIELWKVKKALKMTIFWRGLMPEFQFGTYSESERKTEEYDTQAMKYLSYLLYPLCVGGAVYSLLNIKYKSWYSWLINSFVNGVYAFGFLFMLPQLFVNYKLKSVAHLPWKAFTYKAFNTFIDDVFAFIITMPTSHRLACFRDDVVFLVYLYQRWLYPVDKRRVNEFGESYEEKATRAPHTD
As to the kind of experiment: on-cell detection of fluorescently labeled 102-5 on live Panc1 tumor cells, with or without competitors (excess 10-2 mouse ascites or excess purified CRR9 ectodomain).

B1: 102-5 full-length human IgG1 anti-CLPTM1L (antibody, V domains shown)
VH: EVQLLESGGGLVQPGGSLRLSCAASGFSFSSYEMNWVRQAPGKGPEWISYISSGGGTIYYADSVRGRFTISRDNSNNTLYLQMNSLRPDDTAIYYCARDRGRKWLQLLFDSWGQGTLVTVSS
VL: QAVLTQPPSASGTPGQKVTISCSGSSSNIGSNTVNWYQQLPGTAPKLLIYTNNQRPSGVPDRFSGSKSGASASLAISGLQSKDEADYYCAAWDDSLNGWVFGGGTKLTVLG
notes: also called ESS102-5
A word on the Kd: it is the concentration at which binding is half-saturated. Low values mean a tighter complex, high ones a looser complex. For B1, the binding result in assay [1] and in assay [3] was “binds” each time. Moreover, the dissociation constant Kd in assay [2] came to 1 nM.
